Measurements taken from patent US20230016396A1.

Assays:
[1] = target: T1, M15-K(biotin)-AAR peptide (SEQ ID NO: 12)
T1 chain: KAAR

[2] = target: T2, M15-L-P1-AR target polypeptide with P1 = I
T2 chain: LIAR

[3] = target: T3, M15-L-P1-AR target polypeptide with P1 = A
T3 chain: LAAR

[4] = target: T4, M15-L-P1-AR target polypeptide with P1 = V
T4 chain: LVAR

[5] = target: T5, M15-L-P1-AR target polypeptide with P1 = M
T5 chain: LMAR

[6] = target: T6, M15-L-P1-AR target polypeptide with P1 = L
T6 chain: LLAR

[7] = target: T7, M15-L-P1-AR target polypeptide with P1 = Q
T7 chain: LQAR

[8] = target: T8, M15-L-P1-AR target polypeptide with P1 = E
T8 chain: LEAR

[9] = target: T9, M15-L-P1-AR target polypeptide with P1 = D
T9 chain: LDAR

B1: engineered dipeptidyl peptidase clone (SEQ ID NO: 6) derived from dipeptidyl peptidase from Thermomonas hydrothermalis (protein)
chain: DEGMWVPQQLPEIAGALKKAGLKLDPKQLSDLTGDPMGAVVSLGGCTGSFVSPQGLVATNHHCAYGAIQLNSTPEKNLIKDGFNAPTQADELSAGPNARIYVLEGITDVTAQAKAAMAAAGNDPVARANALEAFEKKITSDCEAEPGYRCRVYSFMGGITYRLFKNLEIKDVRLVYAPPSSVGKFGGDIDMGMWPTHTGDFSFYRAYVGKDGKPAPYSKDNVPYRPKHWLKIADTPLGEGDFVMVAGYPGRTDRYALVAEFENTQNWLYPAISKAYKDQIALVEAAAKDNPEIAVKYAAALAGWNRTSKNFDGQLEGFKRNDVLAIKRREEAAVLEWLRARGKAGTPALEAHAALVKLVADTARTQERDLVLGSFNRTGIIGVAVNLYRLAIERQKPDAEREPGYQQRDLPVIEGSLKQMERRYVPAMDRQLRAYWLDRYVALPAAQHVAAVDAWLGGSDKAAAEAALARLDQSRLGSLEERLKWFNADRAAFEASTDPAIQYAVAVMPTLLAMEQQAKTRYGVALEARPRYLQAVVDYKKSKGQAVYPDANSTLRITYGHVKGYTGLNGKVYTPFTTLEEVAAKETGVEPFDNPKALLEAVAAKRYAGLADARLGTVPVNFLADLDITGGNSGSPVLDANGRLVGLAFAVTLESVASNWVFDPVLTRMISVDQRYMRWIMQEVMPAPQLLEELGVPPRQ
[1]
  percentage of conversion to cleavage product (HPLC, UV absorbance at 254 nm): about 10% of the model peptide was converted to the cleavage product, M15-K(biotin)-A

B2: M15-L_Z001 (first selected modified cleavase) (protein)
chain: MHKTRLVAALAAALATLAPAAWADEGMWVPQQLPEIAGALKKAGLKLDPKQLSDLTGDPMGAVVSLGGCTGSFVSPQGLVATNHHCAYGAIQLNSTPEKNLIKDGFNAPTQADELSAGPNARIYVLEGITDVTAQAKAAMAAAGNDPVARANALEAFEKKITSDCEAEPGYRCRVYSFMGGITYRLFKNLEIKDVRLVYAPPSSVGKFGGDIDMGMWPTHTGDFSFYRAYVGKDGKPAPYSKDNVPYRPKHWLKIADTPLGEGDFVMVAGYPGRTDRYALVAEFENTQNWLYPAISKAYKDQIALVEAAAKDNPEIAVKYAAALAGWNRTSKNFDGQLEGFKRNDVLAIKRREEAAVLEWLRARGKAGTPALEAHAALVKLVADTARTQERDLVLGSFNRTGIIGVAVNLYRLAIERQKPDAEREPGYQQRDLPVIEGSLKQMERRYVPAMDRQLRAYWLDRYVALPAAQHVAAVDAWLGGSDKAAAEAALARLDQSRLGSLEERLKWFNADRAAFEASTDPAIQYAVAVMPTLLAMEQQAKTRYGVALEARPRYLQAVVDYKKSKGQAVYPDANSTLRITYGHVKGYTGLNGKVYTPFTTLEEVAAKETGVEPFDNPKALLEAVAAKRYAGLADARLGTVPVNFLADLDITGGNSGSPVLDANGRLVGLAFAGTLESVASNWVFDPVLTRMISVDQRYMRWIMQEVMPAPQLLEELGVPPRQ
[2]
  cleavage of the M15-L-labeled P1 residue from the polypeptide: provided 100% cleavage for polypeptides with the following M15-L-labeled P1 residues: A, I, L, M, Q, V
[3]
  cleavage of the M15-L-labeled P1 residue from the polypeptide: provided 100% cleavage for polypeptides with the following M15-L-labeled P1 residues: A, I, L, M, Q, V
[4]
  cleavage of the M15-L-labeled P1 residue from the polypeptide: provided 100% cleavage for polypeptides with the following M15-L-labeled P1 residues: A, I, L, M, Q, V
[5]
  cleavage of the M15-L-labeled P1 residue from the polypeptide: provided 100% cleavage for polypeptides with the following M15-L-labeled P1 residues: A, I, L, M, Q, V
[6]
  cleavage of the M15-L-labeled P1 residue from the polypeptide: provided 100% cleavage for polypeptides with the following M15-L-labeled P1 residues: A, I, L, M, Q, V
[7]
  cleavage of the M15-L-labeled P1 residue from the polypeptide: provided 100% cleavage for polypeptides with the following M15-L-labeled P1 residues: A, I, L, M, Q, V

B3: M15-L_Z002 (protein)
chain: MHKTRLVAALAAALATLAPAAWADEGMWVPQQLPEIAGALKKAGLKLDPKQLSDLTGDPMGAVVSLGGCTGSFVSPQGLVATNHHCAYGAIQLNSTPEKNLIKDGFNAPTQADELSAGPNARIYVLEGITDVTAQAKAAMAAAGNDPVARANALEAFEKKITSDCEAEPGYRCRVYSFMGGITYRLFKNLEIKDVRLVYAPPSSVGKFGGDIDMGMWPTHTGDFSFYRAYVGKDGKPAPYSKDNVPYRPKHWLKIADTPLGEGDFVMVAGYPGRTDRYALVAEFENTQNWLYPAISKAYKDQIALVEAAAKDNPEIAVKYAAALAGWNRTSKNFDGQLEGFKRNDVLAIKRREEAAVLEWLRARGKAGTPALEAHAALVKLVADTARTQERDLVLGSFNRTGIIGVAVNLYRLAIERQKPDAEREPGYQQRDLPVIEGSLKQMERRYVPAMDRQLRAYWLDRYVALPAAQHVAAVDAWLGGSDKAAAEAALARLDQSRLGSLEERLKWFNADRAAFEASTDPAIQYAVAVMPTLLAMEQQAKTRYGVALEARPRYLQAVVDYKKSKGQAVYPDANSTLRITYGHVKGYTGLNGKVYTPFTTLEEVAAKETGVEPFDNPKALLEAVAAKRYAGLADARLGTVPVNFLADLDITGGNSGSPVLDANGRLVGLAFAGTLESVASNWVFDPVLTRMISVDQRYMRWIMQEVMPAPQLLEELGVPPRQ
[8]
  cleavage profile (cleavage efficiency): M15-L_Z002, having specificity towards D and E in the P1 position
[9]
  cleavage profile (cleavage efficiency): M15-L_Z002, having specificity towards D and E in the P1 position
